The results in this text go back to the DeepSol protein solubility set.

The data set in a line: soluble on expression in E. coli; label from the status in PepcDB or PDB records.
As for “MIYQPDENRYHTMEYRRCGRSGVKLPAISLGLWHNFGDTTRVENSRALLQRAFDLGITHFDLANNYGPPPGSAECNFGRILQEDFLPWRDELIISTKAGYTMWDGPYGDWGSRKYLIASLDQSLKRMGLEYVDIFYHHRPDPETPLKETMKALDHLVRHGKALYVGISNYPADLARQAIDILEDLGTPCLIHQPKYSLFERWVEDGLLALLQEKGVGSIAFSPLAGGQLTDRYLNGIPEDSRAASGSRFLKPEQITADKLEKVRRLNELAARRGQKLSQMALAWVLRNDNVTSVLIGASKPSQIEDAVGMLANRRFSAAECAEIDAILEGRF”, the “soluble on expression in E. coli” value is given as “not soluble”. Regarding “MPLEASELKPTAGPLEASELKPTAGPLEASELKPTAGPLEASELKPTAGPLEASELKPTAGPLEASELKPTAGPLEASELKPTAGMKLKGRGIVKGVAEGELVVSRKPLSFLGGVDPNTGIITDPESDIQGEKITGKILAFPRGKGSTVGSYVIYALAKKGTGPKAIIVEEAEAIVAVGAIIAGIPLVTGIDISKLKSGMKVRVDGERGEVEIIAQGDLLEHHHHHH”, the “soluble on expression in E. coli” value is reported as “not soluble”. Under “MSLKVDQKEEQVQKRLEALDKLTKTLAIVEQYYVDDQNISDLVDKSLSGLLSNLDAHSSFLNEKDFNDMKIQTNGEFGGLGITVGMKDGALTVVSPIEGTPADKAGIKSGDIILKINDEATLGINLNDAVDKMRGKPKTQITLTIFRKGATKPFDVTLTREIIKIESVYAKMIENENILYLRVTNFDKNVVDVASKELKKYPNVKGVILDLRNNPGGLLNQAIGLVNLFVDKGVIVSQKGRIASENQEYKADPKNKISNASLVVLVNGGSASASEIVSGALQDLKRGVIVGENTFGKGSVQQIIPINKTEALRLTIARYYLPSGRTIQAVGVKPDIEVFPGKVNTQEGHHHHHH” stands “soluble”; under “MGSDKIHHHHHHMHLLFPEVCILCQKPLGEGEEHICAGCFNDFNPFPSVLAGGAALKSTVRAHFGEKAVPAAAWCLYPYRSRGSLHEAMHAMKYGGLFPLGELFGKRLGELICQGGVPVGFDAIVPVPLHHLKRIERTYNQAEALARGMAGLIGLPVATRSLERCVYTGTQTGLGLEARRENMAGAFRPGRERCPARVLLVDDVLTTGATMVSAAKVLKAAGAVEVAFATVALTEKE”, “not soluble”; under “TSRNYLLLTPGPLTTSRTVKEAMLFDSCTWDDDYNIGVVEQIRQQLTALATASEGYTSVLLQGSGSYAVEAVLGSALGPQDKVLIVSNGAYGARMVEMAGLMGIAHHAYDCGEVARPDVQAIDAILNADPTISHIAMVHSETTTGMLNPIDEVGALAHRYGKTYIVDAMSSFGGIPMDIAALHIDYLISSANKCIQGVPGFAFVIAREQKLAACKGHSRSLSLDLYAQWRCMEDNHGKWRFTSPTHTVLAFAQALKELAKEGGVAARHQRYQQNQRSLVAGMRALGFNTLLDDELHSPIITAFYSPEDPQYRFSEFYRRLKEQGFVIYPGKVSQSDCFRIGNIGEVYAADITALLTAIRTAMYWTK”, “soluble”.

Consider “MGSDKIHHHHHHMVLMKKLMMKGNEAIAESAIRAGCRLYFAYPITPQSEIAEYMARRLPEVGGVFLQTESEIATVNMVYGAACTGKRVMTSTSSPGFSLMQEGISYIAGAELPCVFVDVVRGGPGLGNIQPSQGDYFQAVKGGGHGDYRLIVLAPSTLQEAVDLTQLAFDLADRYRNPVLILADGMIGQMMEPVELPEMRDLSTLPDHSDWALRGARNREPHRIAAFNIDPVGLEKMNKRLQEKYRLIEASEQRWEEYRVDGAEYLMVGYGTMGRILKSVVDSLREEGIPAGLFRPVTLWPFPKRRLKELAKKVQLIFVVEMSSGQMVEDVQISVEGKVPVHFYGRMGGVVPTPEEILFAFKEVRKWK”, for which the “soluble on expression in E. coli” value is given as “not soluble”. The entry for “MSLIPIVASSPSPLISGDGDDALRQIGLLHERSAPLGAMMIDHGPDIGERSPVFSMTTIDGVPVTVGRAVSPGRPSLLMFTGPSCPICQKLLPIIRSVAATEGADVILISDGTQAEHREFLRNHPLDGEHYVVSAEIGMRYQVSKVPYGVLLDKDGVIQAKGLCNTREHVESLFETTRVGHSTLQNFLKHGVEDASKHEGHHHHHH” is “soluble”; for “GHHDKRFKAFIAHDGIFNMEMQYLETEEKWFANWDMGGAYWEKQNPTAQRTFANSPHLFVEKWDTPILCIHGEKDYRILANQAMAAFDAAVMRGVPAELLIYPDENHWVLKPQNGVLWQRTFFEWLDQWLKPN” it is “not soluble”; for “MSLTVNNVGLRYGDKKLFEDVSIKFLPGNCYGLIGANGAGKSTFLKVLSGELDSQSGNVHIGSGERLAVLRQDHFQYDNELVLNTVIMGHERLYKIMDEKNAIYMKEDFSDEDGIRAAELEGEFAELDGWEAESDAAVLLNGLGIPTDLHGKLMKDLTGGEKVKVLLAQALFGKPDILLLDEPTNHLDIRAIHWLEEFLINFDNTVIVVSHDRHFLNKVCTHIADLDFSKIKLYVGNYDFWYESSQLAQTMMGDRNKKKEEKMKELQDFIARFSANASKSKQATSRKKMLEKITLEDIQPSSRRYPFIQFKPDREVGNDLLTVTNLSKTIDGVKILDNLSFSINRNDKVALVGDDEVAKTVLFQILAGEMEPDEGSYKWGITTSQSYFPKDNSEFFEENDMSLVEWLRQFSPEDDSEAFLRGFLGRMLFSGDEVLKKVRVLSGGEKVRCMLSKMMLSGSNVLLLDEPTNHLDLESITALNNGLEAFKGAMIFASHDHQLLQTIATRIINLSKDQFYNKEISYDEYLKEVMNVAEGHHHHHH” it is “soluble”. Under “MLSFPRPHSLVEGVVSAIRREIVSGRLPAESKMPTEHELADQFSVSRSVVREAISQLKADGVLVIRRGSGSFVSQTPGGTVFRLPGNEDHSAGLAKLFELRSWIEIQVASVAAQRHTDADLKRLSDAMLLMESNAGNFEISSKADCEFHCAIVAACKNEYLTAFHDFLGSQLIQARFMAWENSSKLEIGPSGAIREHREIFDAIAKRNPSEAAHCARMHLKAAALRLNIDLAD” stands “not soluble”; under “MKRVRLQEVAQVAGVSLGLASAVLNGRHVRARPETVERIREAAQRLGYVPDRMAQAMRWGRTGIIALVVPNFANPYYSALAVEVQRAAWEADLEVLVYANPTEDLAQVSRAVSARRVDGGIIVVSHYTPEELKAHLPLEIPWVGVGHALEPLPFDRVSFKDKEAAMDAVRYLADKGYRRIAHLAGPAPSPTAKARLEGYLEAVSALGMPALVQEGTFRYGDNQRALQTLLGWRADALLAGNDLMALEALAFLQDRGVPVPQGMAVVGFDGIPMGEWVRPQLTTIVRSPRASAQAALARLLARLEGAGEPPQEVWLDTSLRPGDSA”, “soluble”.

With “MAELQKVDDWLSALLANLEPAARSRMMRQLAQELRRTQQQNIRMQRNPDGSSYEPRRVTARSKKGRIKRQMFAKLRTTKYLKTAASADSASVQFEGKVQSIARVHHYGLRDRVSRKGPEVRYAERRLLGVNDDVEAMTRDMILQWLAG”, the “soluble on expression in E. coli” value was “not soluble”.

As for “MDESTCPIIEAIREVGKENDLLVIRLLSDNDLGFNQILKLAGKMSPKTLSVTLKRLTEKKIIYRDVVSTQPFRVKYRLTEKGQELRNVLNDLGQWGERWILNNESQSAVNTENYRLKS”, the “soluble on expression in E. coli” value was “not soluble”. As for “MGSDKIHHHHHHMSEKKILILCQYFYPEYVSSATLPTQLAEDLIANHINVDVMCGWPYEYSNHKQVSKTEMHRGIRIRRLKYSRFNNKSKVGRIINFFSLFSKFVINIPKMLKYDQILVYSNPPILPLIPDVLHRLLKKKYSFVVYDIAPDNAIKTGATRPGSMIDKLMRYINRHVYKNAENVIVLGTEMKNYLLNHQISKNADNIHVIPNWYDMRQLQDNRIYNDTFKAYREQYDKILLYSGNMGQLQDMETLISFLKLNKDQPQTLTILCGHGKKFADVKTAIEDHRIENVKMFEFLTGTDYADVLKIADVCIASLIKEGVGLGVPSKNYGYLAAKKPLVLIMDKQSDIVQHVEQYDAGIQIDNGDAHAIYNFINTHSSKELHEMGERAHQLFKDKYTREINTMKYYNLLK”, the “soluble on expression in E. coli” value is on record as “not soluble”.

Consider “MATIGLDRLYYAKITENENGEETYATPVPLAKAITAELSVELAEATLYADDGAAEVVKEFQSGTLTLGVADIGVDAAEVLTGATLDDNKVLISTSEDGGAPVAIGFRAKKANGKYRYFWLYRVKFGIPATNLQTKGDSITFSTPTIEGTVMRRNKPDGLEHHHHHH”, for which the “soluble on expression in E. coli” value was “soluble”. The entry for “LESALIEVNGKQQLRYEFLNDMLTQQNFQTNPIYAILHESIYCQDFASNWSAHRVRQTRPEFNYEPDQPFYFTGEMVFPWMFDQYVNLKPLKDAAEILAAKEDWAALYDQTQLAQNKVPVSCAVYADDMFVEMDISRETLALIPNSKAWITNEYEHNGLRADGERILDRLIAMGKQTAATLK” is “not soluble”. The entry for “MGHHHHHHSHMYADEVDKDRRTFKKNFSSARGSGIDGKWKRDMFQTANRSPKQNFTTKRRAQTNFVTKAGAAAAGLATRNISTASIRGRTAPAVVREIHTGPSTLIIKNLATTVTQEDLEELFEQYEPELVQLHYGPTGESNGCADLIVPHAQVAIIQKALEGVLLDGEPIEVLEANPPKQVSVFDRIKKVSRGNDFKAKNMRVVVKSKGGFQKRGARGDF” is “soluble”; for “MLSSHLSQICFSCRDPLGNLPADLIRKCTDLMDLNFAEGQRLRTLNKNWKLALPSFRKGAYREERPWLLYRERGSGETRFFDPVRERVHRGNDPRLADARFLGSTLGWLVMSESLDLNPRKTHQTFLYNPFISELQQLPELTLDSPYPTGVLRYGVLTGNPSDNNTYACLITDYLHEIGNRRDTYTLLIYYVAKTSGRWEQNWSVASMLVVGIFDTWYIESISPSPDKISIEIWPKRYDFTFQTQEWNVSNFIPVDPIQWDPFHDQSLYHVKHRLQLPENPSTLAIIIGTSTDRTRVRNKIIGDQSDDDDPRASDHIIDGVWVEVRP” it is “soluble”.

For “MQPEEGTGWLLELLSEVQLQQYFLRLRDDLNVTRLSHFEYVKNEDLEKIGMGRPGQRRLWEAVKRRKALCKRKSWMSKVFSGKRLEAEFPPHHSQSTFRKTSPAPGGPAGEGPLQSLTCLIGEKDLRLLEKLGDGSFGVVRRGEWDAPSGKTVSVAVKCLKPDVLSQPEAMDDFIREVNAMHSLDHRNLIRLYGVVLTPPMKMVTELAPLGSLLDRLRKHQGHFLLGTLSRYAVQVAEGMGYLESKRFIHRDLAARNLLLATRDLVKIGDFGLMRALPQNDDHYVMQEHRKVPFAWCAPESLKTRTFSHASDTWMFGVTLWEMFTYGQEPWIGLNGSQILHKIDKEGERLPRPEDCPQDIYNVMVQCWAHKPEDRPTFVALRDFLLEAQPTDMRALQDFEEPDKLHIQMNDVITVIEGRAENYWWRGQNTRTLCVGPFPRNVVTSVAGLSAQDISQPLQNSFIHTGHGDSDPRHCWGFPDRIDELYLGNPMDPPDLLSVELSTSRPPQHLGGVKKPTYDPVSEDQDPLSSDFKRLGLRKPGLPRGLWLAKPSARVPGTKASRGSGAEVTLIDFGEEPVVPALRPCPPSLAQLAMDACSLLDETPPQSPTRALPRPLHPTPVVDWDARPLPPPPAYDDVAQDEDDFEICSINSTLVGAGVPAGPSQGQTNYAFVPEQARPPPPLEDNLFLPPQGGGKPPSSAQTAEIFQALQQECMRQLQAPGSPAPSPSPGGDDKPQVPPRVPIPPRPTRPHVQLSPAPPGEEETSQWPGPASPPRVPPREPLSPQGSRTPSPLVPPGSSPLPPRLSSSPGKTMPTTQSFASDPKYATPQVIQAPGAGGPCILPIVRDGKKVSSTHYYLLPERPSYLERYQRFLREAQSPEEPTPLPVPLLLPPPSTPAPAAPTATVRPMPQAALDPKANFSTNNSNPGARPPPPRATARLPQRGCPGDGPEAGRPADKIQMAMVHGVTTEECQAALQCHGWSVQRAAQYLKVEQLFGLGLRPRGECHKVLEMFDWNLEQAGCHLLGSWGPAHHKR”, the “soluble on expression in E. coli” value is on record as “not soluble”.

Take “MRTKYILELFDTSEQHKPIARFESSTPFTAASVGERFDDIGWERLDGAGKIASPLSPKRYTVHSAKHLVIVEAGALVIKYCLNLEPFSGPSSPVWGDE”: the “soluble on expression in E. coli” value was “not soluble”.
